# In patent publication CN113999303A (BEIJING GENESEE BIOLOGICAL TECH CO LTD, dated 2022):
# B1: 新型冠状病毒核衣壳抗体 mAb#9 (antibody, V domains shown)
# VH: EVQLVESGGGLVKPGGSLKLSCAASGITFSDYYMYWVRQTPEKRLEWVATISDGGSYTYYPDSVKGRFTISRDNAKNNLYLQMSSLKSEDTAMYYCVRDKSMGFGAWFAYWGQGTLVTVSA
# VL: EIVLTQSPTTMAASPGEKITITCSASSSISSNYLHWYQQRPGFSPKLLIYRTSNLASGVPARFSGSGSGTSYSLTIGTMEAEDVATYYCQQGHSIPYTFGGGTKLEIK
# notes: also called 第二新型冠状病毒核衣壳蛋白抗体
# Target: T1, 新型冠状病毒核衣壳蛋白 (SARS-COV-2, UniProt P0DTC9 1-419)
# T1 construct: also called SARS-COV-2 nucleocapsid protein; N protein
# Assay: ELISA screening of mouse hybridomas for antigen-specific antibodies
binder,measurement,value
B1,binding result,binds
